This assay relates to SK2 channel. Description: Whole cell patch clamp recording of SK2 current in pancreatic cancer cells. The assay is classed as cell-based, human. As to conditions: cells treated without CAF-CM; EGF 25 ng/mL overnight. The procedure:
Electrophysiological recordings in HEK293-T, PANC-1 and MiaPaCa-2 cells were performed in the whole cell configuration of the patch clamp technique at room temperature. Cells were bathed in a solution containing: 5 mM KCl, 145 mM NaCl, 1 mM MgCl2, 2 mM CaCl2, and 10 mM Hepes (pH adjusted to 7.4 with HCl, 300 mosm/L). Soft glass patch electrodes (Brand, Wertheim, Germany) were made on a horizontal pipette puller (P-97, Sutter Instrument Co., Novato, CA) to achieve a final resistance ranging from 3 to 5 MΩ. The internal solution was: 145 mM KCl, 1 mM MgCl2, 0.87 mM CaCl2, 1 mM EGTA, 10 mM Hepes, 1 mM ATP (pH adjusted to 7.2 with KOH, 308 mosm/L, pCa 6). Recordings were performed at room temperature in the voltage clamp mode using an PC-controlled EPC 9 patch-clamp amplifier (HEKA, Lambrecht/Pfalz, Germany). Currents were acquired and analyzed with Pulse and Pulsefit software (HEKA). Signal were filtered at 10 kHz and digitalized at 20 kHz. Currents were elicited by voltage ramps protocols (from −120 to +60 mV). Current density was measured at 0 mV. For the electrophysiological study of the SK2 mutations, HEK293-T were transfected with the different constructions and the HA-myr-AKT using calcium phosphate and recorded 24 h after transfection.

B1: EGF: EGFR ligand; growth factor applied to cells at 25 ng/mL (protein, UniProt P01133 23-1207, looked up)
Pro-epidermal growth factor: PQHWSCPEGTLAGNGNSTCVGPAPFLIFSHGNSIFRIDTEGTNYEQLVVDAGVSVIMDFHYNEKRIYWVDLERQLLQRVFLNGSRQERVCNIEKNVSGMAINWINEEVIWSNQQEGIITVTDMKGNNSHILLSALKYPANVAVDPVERFIFWSSEVAGSLYRADLDGVGVKALLETSEKITAVSLDVLDKRLFWIQYNREGSNSLICSCDYDGGSVHISKHPTQHNLFAMSLFGDRIFYSTWKMKTIWIANKHTGKDMVRINLHSSFVPLGELKVVHPLAQPKAEDDTWEPEQKLCKLRKGNCSSTVCGQDLQSHLCMCAEGYALSRDRKYCEDVNECAFWNHGCTLGCKNTPGSYYCTCPVGFVLLPDGKRCHQLVSCPRNVSECSHDCVLTSEGPLCFCPEGSVLERDGKTCSGCSSPDNGGCSQLCVPLSPVSWECDCFPGYDLQLDEKSCAASGPQPFLLFANSQDIRHMHFDGTDYGTLLSQQMGMVYALDHDPVENKIYFAHTALKWIERANMDGSQRERLIEEGVDVPEGLAVDWIGRRFYWTDRGKSLIGRSDLNGKRSKIITKENISQPRGIAVHPMAKRLFWTDTGINPRIESSSLQGLGRLVIASSDLIWPSGITIDFLTDKLYWCDAKQSVIEMANLDGSKRRRLTQNDVGHPFAVAVFEDYVWFSDWAMPSVMRVNKRTGKDRVRLQGSMLKPSSLVVVHPLAKPGADPCLYQNGGCEHICKKRLGTAWCSCREGFMKASDGKTCLALDGHQLLAGGEVDLKNQVTPLDILSKTRVSEDNITESQHMLVAEIMVSDQDDCAPVGCSMYARCISEGEDATCQCLKGFAGDGKLCSDIDECEMGVPVCPPASSKCINTEGGYVCRCSEGYQGDGIHCLDIDECQLGEHSCGENASCTNTEGGYTCMCAGRLSEPGLICPDSTPPPHLREDDHHYSVRNSDSECPLSHDGYCLHDGVCMYIEALDKYACNCVVGYIGERCQYRDLKWWELRHAGHGQQQKVIVVAVCVVVLVMLLLLSLWGAHYYRTQKLLSKNPKNPYEESSRDVRSRRPADTEDGMSSCPQPWFVVIKEHQDLKNGGQPVAGEDGQAADGSMQPTSWRQEPQLCGMGTEQGCWIPVSSDKGSCPQVMERSFHMPSYGTQTLEGGVEKPHSLLSANPLWQQRALDPPHQMELTQ
modifications: Pro-epidermal growth factor
notes: EGFR ligand; growth factor applied to cells at 25 ng/mL
Consider B1, for which the SK2 current entry was “significant increase”.

(Values after patent US20260083725A1, “SIGMARI LIGAND FOR THE TREATMENT OF PANCREATIC CANCER” (INSTITUT NATIONAL DE LA SANTÉ ET DE LA RECHERCHE MÉDICALE, priority 2022, published 2026).)
